± gives the uncertainty stated by the source.
Assay: protein stability index of a GFP-peptide fusion (yeast GPS) (PSI 1-4); higher = more stable; sorted into four equal gates, so the index is relative within each strain
Conditions: pdr5∆
How it was run: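 Yeast carrying a pooled library were grown to mid-log phase in leucine-free medium. Each library plasmid expresses Cherry and has a tiled 17-residue yeast protein peptide fused downstream of GFP. Cells were sorted into four equal gates by GFP/Cherry ratio, and plasmids from each gate were PCR-amplified, Illumina-sequenced and assigned to strains by barcode. Summing, across gates, the read frequency times the gate number gave each peptide's protein stability index.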

Sequence	protein stability index
LRSTENGIVDQVLVTTN [RPB2]	2.03 ± 0.11

Same assay, conditions: san1∆

Sequence	protein stability index
LIVDTHVQFRLGNVDAF [PRP8]	2.32 ± 0.13
LKIIYTGLCSFDYSVIL [YJL039C/NUP192]	1.6 ± 0.11
LKKNNYNSFPHSNLEKI [SIR4]	3.19 ± 0.053
LKKRYDLSYNFNVHEVP [YMR129W/POM152]	2.7 ± 0.058
LKKVQQQQQAAALANAN [SWI1]	2.1 ± 0.073
LKLCLGDHSSVPVALKG [YMR129W/POM152]	2.74 ± 0.1
LKLLVKLYTFLARRTDA [RPL18A]	1.75 ± 0.065
LKLNHIIANINSFTKGN [SNU114]	1.83 ± 0.054
LKMQQQQQQQQQQQQQQ [GAL11]	2.62 ± 0.073
LKNCKISNINIPISSET [SMC1]	3.05 ± 0.08
LKNKNFKCQEKDKGVYV [SIR2]	3.38 ± 0.077
LKNMLYVLSTAVEFESV [BRR2]	1.88 ± 0.081
LKPDLNKITNQGVTCLH [NAS6]	3.13 ± 0.079
LKQDLKKISSFKSLIDE [YGL172W/NUP49]	3.08 ± 0.04
LKQHNQNNLPPNFFLTL [BRR2]	2.84 ± 0.069
LKRFPKMSVTCNAQPIT [BRR2]	2.02 ± 0.11
LKSASKETAPVIDTLAA [RPL28]	2.68 ± 0.073
LKSHYYQTCKNSEYLKR [SMC2]	1.36 ± 0.091
LKTRDWIVVLPWFWLLP [POP1]	1.5 ± 0.23
LKTVIILSSLYLLSIWV [CYT1]	1.24 ± 0.15
LKVLSEHLDCMNFISKE [PCI8]	3.2 ± 0.047
LKWVAVVPDLGHLNGHT [SSN2]	3.1 ± 0.048
LKYLDDLKAQFQELDSK [RPN9]	3.12 ± 0.075
LLDNEIRIFRSELQRLS [RPT5]	3.09 ± 0.076
LLDTNSLEENAMSTVTL [SKI6]	3.04 ± 0.083
LLEETQAKLKKNVETLE [SMC4]	3.31 ± 0.08

Sequence	protein stability index
LLEFFELVFSKGVYLIL [YML103C/NUP188]	1.97 ± 0.093
LLERYIGNLITRQFEGR [PRP8]	2.43 ± 0.15
LLFNNDFPLLKVLAAHT [RRP40]	1.18 ± 0.12
LLGKESFKKIIKFLLTF [YCS4]	1.18 ± 0.16
LLICIGTSLKVAPVSEI [SIR2]	2.29 ± 0.18
LLIRKLPFQRLVREIAQ [HHT1]	1.44 ± 0.16
LLISLNILFSLWKLLST [YLR018C/POM34]	1.22 ± 0.21
LLKEKPNALKPLSESLR [RRP6]	2.91 ± 0.077
LLKELSKNAQFICTTFR [SMC3]	1.84 ± 0.1
LLKKATKPEVASDMSDE [CDC53]	2.84 ± 0.086
LLKKKDDPSKVRLLCRS [YLR335W/NUP2]	1.98 ± 0.089
LLLKLASPHASVRTAVF [ECM29]	1.57 ± 0.063
LLLLSLFKKITNVNPSK [YML103C/NUP188]	2.24 ± 0.038
LLNILSGLPTCDYYNTF [RPN2]	2.03 ± 0.16
LLNINGSRKVAGILRGY [SMX2]	2.25 ± 0.14
LLPPIKIELIKNNLLIP [RPN12]	1.75 ± 0.11
LLREFKKLDDKPSLVDV [RPN6]	3.27 ± 0.26
LLRNLESKMRQQEAKYR [YDL088C/ASM4]	1.39 ± 0.14
LLSDVNQNQRNVNETMS [SMC3]	3.04 ± 0.062
LLSEHDDHNGEVWSVSW [YGL100W/SEH1]	2.36 ± 0.079
LLSIPISCPLIGVIQLA [FAS1]	1.23 ± 0.12
LLSKLLLKHPFKAIHGS [YCS4]	1.67 ± 0.059
LLSLISTTAALQSISSL [RPN7]	1.77 ± 0.075
LLSQFGIKVLPETCLFV [YML103C/NUP188]	1.18 ± 0.14
LLTNSNNGSSNNNTQNT [SNF5]	3.17 ± 0.069
LLVERLKEDDSSLYEAS [RPN1]	3.06 ± 0.1

Sequence	protein stability index
LLVLLQDVIKVLYQSNA [SWP82]	1.72 ± 0.12
LLVQKRFKYAPGTIVLY [RPS3]	1.72 ± 0.13
LMLKKLKNSIMSFIFPS [YML031W/NDC1]	2.28 ± 0.073
LMTKLNSFKLFKAEKLQ [RPC17]	1.92 ± 0.06
LNARMFLKYYGAHKFLD [SIR2]	1.21 ± 0.12
LNATTAMDLAQMLIQGV [BRR2]	2.58 ± 0.094
LNDHIDDFEVNVASLVR [GRR1]	2.31 ± 0.25
LNEAQGHIVSLELTTGA [SMD3]	1.59 ± 0.14
LNEITNSKVNKLNIETM [DSN1]	2.54 ± 0.077
LNGGLQFVPELKEFTAK [FAS2]	2.3 ± 0.092
LNHVVSLIENKKAKLVL [RPL8B]	2.98 ± 0.1
LNICRQCFREKANDIGF [RPS29A]	3.07 ± 0.1
LNIDWSTTGDNGELDLS [MED2]	2.13 ± 0.079
LNKDSTNEFVGSPSLTS [NUT1]	2.93 ± 0.044
LNKFKKAIFQFVCRGMA [ECM29]	2.6 ± 0.11
LNKSDLLDKYGKTGLSN [YML103C/NUP188]	3.44 ± 0.058
LNNNNNNNNTTTTTTTT [SWI1]	3.33 ± 0.081
LNSLTNLLSKRNQEKKM [SNM1]	2.69 ± 0.083
LNTKSIQIDEETENSES [MCD1]	2.87 ± 0.1
LNYTVINFKSREAIRPG [AAR2]	3.15 ± 0.058
LPDELTLSYDDISAAIV [DLS1]	2.58 ± 0.073
LPEKVNFRTMQQQQMQQ [SSN2]	2.46 ± 0.19
LPFQRLVREIAQDFKTD [HHT1]	2.48 ± 0.073
LPKAWISLAVEGEPVNS [COR1]	2.84 ± 0.14
LPKLKATGHRVLIFFQM [SNF2]	2.09 ± 0.12
LPLRLQFNEFIQIMANI [PGD1]	1.28 ± 0.14

Sequence	protein stability index
LPNEAGRLEIFKIHTAK [RPT4]	2.92 ± 0.19
LPNLGTPDDDEIDVENH [RPN8]	1.69 ± 0.11
LPPNWKYESATASALVN [RPS13]	2.69 ± 0.064
LPPPEDVAFLKTAYSIY [RPN1]	2.46 ± 0.069
LPSEERIQKIISKRKEE [YIL149C/MLP2]	1.41 ± 0.16
LPSSNGSSRIIASDGSE [RRP42]	3.17 ± 0.11
LQDEVMNIKPVQKQTRA [RPS2]	2.42 ± 0.14
LQKEKELHKEGTISKLE [SMC2]	1.83 ± 0.06
LQLIIFLRTQFLKLYVL [RGR1]	1.53 ± 0.12
LQNCCIIDVGTHHTDII [ARP9]	1.51 ± 0.15
LQPIFKGEEAKLDSKKT [SSN3]	3.54 ± 0.17
LQQAKLRESEISQKLTN [SMC3]	3.15 ± 0.087
LQQGMRGAWGKPHGLAA [RPL10]	2.24 ± 0.23
LQSISSLTISLYASDYA [RPN7]	1.83 ± 0.039
LQSIVNEISRNGTMINE [PCI8]	2.67 ± 0.13
LQVADKFFRVKYENKIS [SMC3]	1.67 ± 0.092
LQYLPLYAVSTFENTNN [SIR4]	1.41 ± 0.057
LRACAANVDQISFLEPI [YMR129W/POM152]	2.92 ± 0.05
LRDTFIELDQVLNMLYW [RPO21]	2.4 ± 0.07
LRLFINEEGDWSCIVVE [ITC1]	3.07 ± 0.083
LRNWEELNIIPRDLLRV [PRP28]	1.39 ± 0.21
LRQLASYYSREQDALFI [RPN1]	1.63 ± 0.08
LRRRTASHNVRRIPKRM [POP1]	2.85 ± 0.052
LRSKTSAGRIESNNPSH [SIR4]	2.55 ± 0.18
LRSTENGIVDQVLVTTN [RPB2]	2.46 ± 0.099
